Experiments:
[1] = compound: Cc1ncc(/C=C/P(=O)(O)O)c(C=O)c1O; assay: (§1) Inhibition of recombinant mouse brain PDXP-mediated pyridoxal 5' phosphate hydrolysis expressed in Escherichia coli BL21 (DE3) cells assessed as enzyme Km at 0.1 mM preincubated for 4 mins followed by substrate addition measured after 2 mins
[2] = compound: Cc1ncc(/C=C/P(=O)(O)O)c(CO)c1O; assay: as §1
[3] = compound: Cc1ncc(CCP(=O)(O)O)c(C=O)c1O; assay: as §1
[4] = compound: Cc1ncc(CCP(=O)(O)O)c(CO)c1O; assay: as §1
[5] = compound: Cc1ncc(/C=C/P(=O)(O)O)c(C=O)c1O; assay: (§2) Inhibition of recombinant mouse brain PDXP-mediated pyridoxal 5' phosphate hydrolysis expressed in Escherichia coli BL21 (DE3) cells assessed as enzyme Vmax at 0.1 mM preincubated for 4 mins followed by substrate addition measured after 2 mins
[6] = compound: Cc1ncc(/C=C/P(=O)(O)O)c(CO)c1O; assay: as §2
[7] = compound: Cc1ncc(CCP(=O)(O)O)c(C=O)c1O; assay: as §2
[8] = compound: Cc1ncc(CCP(=O)(O)O)c(CO)c1O; assay: as §2
[9] = compound: Cc1ncc(/C=C/P(=O)(O)O)c(C=O)c1O; assay: (§3) Inhibition of recombinant mouse brain PDXP-mediated pyridoxal 5' phosphate hydrolysis expressed in Escherichia coli BL21 (DE3) cells assessed as enzyme Kcat at 0.1 mM preincubated for 4 mins followed by substrate addition measured after 2 mins
[10] = compound: Cc1ncc(/C=C/P(=O)(O)O)c(CO)c1O; assay: as §3
[11] = compound: Cc1ncc(CCP(=O)(O)O)c(C=O)c1O; assay: as §3
[12] = compound: Cc1ncc(CCP(=O)(O)O)c(CO)c1O; assay: as §3
[13] = compound: Cc1ncc(/C=C/P(=O)(O)O)c(C=O)c1O; assay: (§4) Inhibition of recombinant mouse brain PDXP-mediated pyridoxal 5' phosphate hydrolysis expressed in Escherichia coli BL21 (DE3) cells assessed as ratio of enzyme Kcat/Km at 0.1 mM preincubated for 4 mins followed by substrate addition measured after 2 mins
[14] = compound: Cc1ncc(/C=C/P(=O)(O)O)c(CO)c1O; assay: as §4
[15] = compound: Cc1ncc(CCP(=O)(O)O)c(C=O)c1O; assay: as §4
[16] = compound: Cc1ncc(CCP(=O)(O)O)c(CO)c1O; assay: as §4
[17] = compound: Cc1ncc(/C=C/P(=O)(O)O)c(C=O)c1O; assay: (§5) Inhibition of recombinant mouse brain PDXP-mediated pyridoxal 5' phosphate hydrolysis expressed in Escherichia coli BL21 (DE3) cells assessed as enzyme Km at 0.5 mM preincubated for 4 mins followed by substrate addition measured after 2 mins
[18] = compound: Cc1ncc(/C=C/P(=O)(O)O)c(CO)c1O; assay: as §5
[19] = compound: Cc1ncc(CCP(=O)(O)O)c(C=O)c1O; assay: as §5
[20] = compound: Cc1ncc(CCP(=O)(O)O)c(CO)c1O; assay: as §5
[21] = compound: Cc1ncc(/C=C/P(=O)(O)O)c(C=O)c1O; assay: (§6) Inhibition of recombinant mouse brain PDXP-mediated pyridoxal 5' phosphate hydrolysis expressed in Escherichia coli BL21 (DE3) cells assessed as enzyme Vmax at 0.5 mM preincubated for 4 mins followed by substrate addition measured after 2 mins
[22] = compound: Cc1ncc(/C=C/P(=O)(O)O)c(CO)c1O; assay: as §6
[23] = compound: Cc1ncc(CCP(=O)(O)O)c(C=O)c1O; assay: as §6
[24] = compound: Cc1ncc(CCP(=O)(O)O)c(CO)c1O; assay: as §6
[25] = compound: Cc1ncc(/C=C/P(=O)(O)O)c(C=O)c1O; assay: (§7) Inhibition of recombinant mouse brain PDXP-mediated pyridoxal 5' phosphate hydrolysis expressed in Escherichia coli BL21 (DE3) cells assessed as enzyme Kcat at 0.5 mM preincubated for 4 mins followed by substrate addition measured after 2 mins
[26] = compound: Cc1ncc(/C=C/P(=O)(O)O)c(CO)c1O; assay: as §7
[27] = compound: Cc1ncc(CCP(=O)(O)O)c(C=O)c1O; assay: as §7
[28] = compound: Cc1ncc(CCP(=O)(O)O)c(CO)c1O; assay: as §7
[29] = compound: Cc1ncc(/C=C/P(=O)(O)O)c(C=O)c1O; assay: (§8) Inhibition of recombinant mouse brain PDXP-mediated pyridoxal 5' phosphate hydrolysis expressed in Escherichia coli BL21 (DE3) cells assessed as ratio of enzyme Kcat/Km at 0.5 mM preincubated for 4 mins followed by substrate addition measured after 2 mins
[30] = compound: Cc1ncc(/C=C/P(=O)(O)O)c(CO)c1O; assay: as §8
[31] = compound: Cc1ncc(CCP(=O)(O)O)c(C=O)c1O; assay: as §8
[32] = compound: Cc1ncc(CCP(=O)(O)O)c(CO)c1O; assay: as §8
[33] = compound: Cc1ncc(/C=C/P(=O)(O)O)c(C=O)c1O; assay: (§9) Inhibition of recombinant mouse brain PDXP-mediated pyridoxal 5' phosphate hydrolysis expressed in Escherichia coli BL21 (DE3) cells assessed as enzyme Km at 1 mM preincubated for 4 mins followed by substrate addition measured after 2 mins
[34] = compound: Cc1ncc(/C=C/P(=O)(O)O)c(CO)c1O; assay: as §9
[35] = compound: Cc1ncc(CCP(=O)(O)O)c(C=O)c1O; assay: as §9
[36] = compound: Cc1ncc(CCP(=O)(O)O)c(CO)c1O; assay: as §9
[37] = compound: Cc1ncc(/C=C/P(=O)(O)O)c(C=O)c1O; assay: (§10) Inhibition of recombinant mouse brain PDXP-mediated pyridoxal 5' phosphate hydrolysis expressed in Escherichia coli BL21 (DE3) cells assessed as enzyme Vmax at 1 mM preincubated for 4 mins followed by substrate addition measured after 2 mins
[38] = compound: Cc1ncc(/C=C/P(=O)(O)O)c(CO)c1O; assay: as §10
[39] = compound: Cc1ncc(CCP(=O)(O)O)c(C=O)c1O; assay: as §10
[40] = compound: Cc1ncc(CCP(=O)(O)O)c(CO)c1O; assay: as §10
[41] = compound: Cc1ncc(/C=C/P(=O)(O)O)c(C=O)c1O; assay: (§11) Inhibition of recombinant mouse brain PDXP-mediated pyridoxal 5' phosphate hydrolysis expressed in Escherichia coli BL21 (DE3) cells assessed as enzyme Kcat at 1 mM preincubated for 4 mins followed by substrate addition measured after 2 mins
[42] = compound: Cc1ncc(/C=C/P(=O)(O)O)c(CO)c1O; assay: as §11
[43] = compound: Cc1ncc(CCP(=O)(O)O)c(C=O)c1O; assay: as §11
[44] = compound: Cc1ncc(CCP(=O)(O)O)c(CO)c1O; assay: as §11
[45] = compound: Cc1ncc(/C=C/P(=O)(O)O)c(C=O)c1O; assay: (§12) Inhibition of recombinant mouse brain PDXP-mediated pyridoxal 5' phosphate hydrolysis expressed in Escherichia coli BL21 (DE3) cells assessed as ratio of enzyme Kcat/Km at 1 mM preincubated for 4 mins followed by substrate addition measured after 2 mins
[46] = compound: Cc1ncc(/C=C/P(=O)(O)O)c(CO)c1O; assay: as §12
[47] = compound: Cc1ncc(CCP(=O)(O)O)c(C=O)c1O; assay: as §12
[48] = compound: Cc1ncc(CCP(=O)(O)O)c(CO)c1O; assay: as §12
[49] = compound: Cc1ncc(/C=C/P(=O)(O)O)c(C=O)c1O; assay: (§13) Inhibition of recombinant mouse brain PDXP-mediated pyridoxal 5' phosphate hydrolysis expressed in Escherichia coli BL21 (DE3) cells assessed as enzyme Km at 2 mM preincubated for 4 mins followed by substrate addition measured after 2 mins
[50] = compound: Cc1ncc(/C=C/P(=O)(O)O)c(CO)c1O; assay: as §13
[51] = compound: Cc1ncc(CCP(=O)(O)O)c(C=O)c1O; assay: as §13
[52] = compound: Cc1ncc(CCP(=O)(O)O)c(CO)c1O; assay: as §13
[53] = compound: Cc1ncc(/C=C/P(=O)(O)O)c(C=O)c1O; assay: (§14) Inhibition of recombinant mouse brain PDXP-mediated pyridoxal 5' phosphate hydrolysis expressed in Escherichia coli BL21 (DE3) cells assessed as enzyme Vmax at 2 mM preincubated for 4 mins followed by substrate addition measured after 2 mins
[54] = compound: Cc1ncc(/C=C/P(=O)(O)O)c(CO)c1O; assay: as §14
[55] = compound: Cc1ncc(CCP(=O)(O)O)c(C=O)c1O; assay: as §14
[56] = compound: Cc1ncc(CCP(=O)(O)O)c(CO)c1O; assay: as §14
[57] = compound: Cc1ncc(/C=C/P(=O)(O)O)c(C=O)c1O; assay: (§15) Inhibition of recombinant mouse brain PDXP-mediated pyridoxal 5' phosphate hydrolysis expressed in Escherichia coli BL21 (DE3) cells assessed as enzyme Kcat at 2 mM preincubated for 4 mins followed by substrate addition measured after 2 mins
[58] = compound: Cc1ncc(/C=C/P(=O)(O)O)c(CO)c1O; assay: as §15
[59] = compound: Cc1ncc(CCP(=O)(O)O)c(C=O)c1O; assay: as §15
[60] = compound: Cc1ncc(CCP(=O)(O)O)c(CO)c1O; assay: as §15
[61] = compound: Cc1ncc(/C=C/P(=O)(O)O)c(C=O)c1O; assay: (§16) Inhibition of recombinant mouse brain PDXP-mediated pyridoxal 5' phosphate hydrolysis expressed in Escherichia coli BL21 (DE3) cells assessed as ratio of enzyme Kcat/Km at 2 mM preincubated for 4 mins followed by substrate addition measured after 2 mins
[62] = compound: Cc1ncc(/C=C/P(=O)(O)O)c(CO)c1O; assay: as §16
[63] = compound: Cc1ncc(CCP(=O)(O)O)c(C=O)c1O; assay: as §16
[64] = compound: Cc1ncc(CCP(=O)(O)O)c(CO)c1O; assay: as §16

B1: Chronophin (Mus musculus), P60487 (protein)
chain: MARCERLRGAALRDVLGQAQGVLFDCDGVLWNGERIVPGAPELLQRLARAGKNTLFVSNNSRRARPELALRFARLGFAGLRAEQLFSSALCAARLLRQRLSGPPDASGAVFVLGGEGLRAELRAAGLRLAGDPGEDPRVRAVLVGYDEQFSFSRLTEACAHLRDPDCLLVATDRDPWHPLSDGSRTPGTGSLAAAVETASGRQALVVGKPSPYMFQCITEDFSVDPARTLMVGDRLETDILFGHRCGMTTVLTLTGVSSLEEAQAYLTAGQRDLVPHYYVESIADLMEGLED
Km [1]: 78 µM | Km [2]: 44 µM | Km [3]: 72 µM | Km [4]: 59 µM | Vmax [5]: 3580 nmol/min/mg | Vmax [6]: 3300 nmol/min/mg | Vmax [7]: 3590 nmol/min/mg | Vmax [8]: 3740 nmol/min/mg | kcat [9]: 1.9 s⁻¹ | kcat [10]: 1.8 s⁻¹ | kcat [11]: 1.9 s⁻¹ | kcat [12]: 2 s⁻¹ | kcat/Km [13]: 2.4 ×10⁴ /s/M | kcat/Km [14]: 4 ×10⁴ /s/M | kcat/Km [15]: 2.7 ×10⁴ /s/M | kcat/Km [16]: 3.3 ×10⁴ /s/M | Km [17]: 170 µM | Km [18]: 77 µM | Km [19]: 170 µM | Km [20]: 83 µM | Vmax [21]: 2990 nmol/min/mg | Vmax [22]: 3230 nmol/min/mg | Vmax [23]: 3280 nmol/min/mg | Vmax [24]: 3680 nmol/min/mg | kcat [25]: 1.6 s⁻¹ | kcat [26]: 1.7 s⁻¹ | kcat [27]: 1.7 s⁻¹ | kcat [28]: 2 s⁻¹ | kcat/Km [29]: 0.9 ×10⁴ /s/M | kcat/Km [30]: 2.2 ×10⁴ /s/M | kcat/Km [31]: 1 ×10⁴ /s/M | kcat/Km [32]: 2.4 ×10⁴ /s/M | Km [33]: 248 µM | Km [34]: 112 µM | Km [35]: 197 µM | Km [36]: 98 µM | Vmax [37]: 2300 nmol/min/mg | Vmax [38]: 3150 nmol/min/mg | Vmax [39]: 2620 nmol/min/mg | Vmax [40]: 3440 nmol/min/mg | kcat [41]: 1.2 s⁻¹ | kcat [42]: 1.7 s⁻¹ | kcat [43]: 1.4 s⁻¹ | kcat [44]: 1.8 s⁻¹ | kcat/Km [45]: 0.5 ×10⁴ /s/M | kcat/Km [46]: 1.5 ×10⁴ /s/M | kcat/Km [47]: 0.7 ×10⁴ /s/M | kcat/Km [48]: 1.9 ×10⁴ /s/M | Km [49]: 224 µM | Km [50]: 181 µM | Km [51]: 246 µM | Km [52]: 136 µM | Vmax [53]: 1640 nmol/min/mg | Vmax [54]: 3070 nmol/min/mg | Vmax [55]: 2130 nmol/min/mg | Vmax [56]: 3150 nmol/min/mg | kcat [57]: 0.9 s⁻¹ | kcat [58]: 1.6 s⁻¹ | kcat [59]: 1.1 s⁻¹ | kcat [60]: 1.7 s⁻¹ | kcat/Km [61]: 0.4 ×10⁴ /s/M | kcat/Km [62]: 0.9 ×10⁴ /s/M | kcat/Km [63]: 0.5 ×10⁴ /s/M | kcat/Km [64]: 1.2 ×10⁴ /s/M
